The values that follow come from the supplement of paper PMC6755084.

The data set deals with F1*sub RNA substrate (template-directed ligation). The data set can be described thus: fraction ligated after 30 min (ligated reads / total reads); higher = more ligase activity; sequences stand for … in GAGACCGCAACTGAAAAGTTGT…AGTTCTGCACGTAGAAGCAAAAGGC
As to conditions: 42 °C. In outline:
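Ligase ribozyme variants were made from oligo-pool templates by PCR amplification, T7 transcription and gel purification. After gel separation, ligated and unligated bands were reverse transcribed with barcoded primers and sequenced on a MiSeq, with core bases filtered at quality ≥20. The fraction ligated for each variant was the number of ligated reads divided by total reads.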
As for TTCACTTGTCGTAAGACCTTTGGATGGGTTGA [2d38], the fraction ligated came to 0.793.
In turn, TTCACTTGTCGTAAGACCTTTGGATGGTTGA [3d474] gave a fraction ligated of 0.523.
For the sequence TTCACTTGTCGTAAGACCTTTGGTGGGTTGA [3d472], the fraction ligated is 0.0157.
In turn, TTCACTTGTCGTAAGACTTTGGATGGGTTGA [3d452] returned a fraction ligated of 0.752.
The figure for TTCACTTGTCGTAAGCACTTGGATGGGTTGA [3d455] is 0.231.
The figure for TTCACTTGTCGTAAGCACTTTGATGGGTTGA [3d456] is 0.0811; for TTCACTTGTCGTAAGCACTTTGGAGGGTTGA [3d458] it is 0.051; for TTCACTTGTCGTAAGCACTTTGGATGGGTTA [3d460] it is 0.0582.
For TTCACTTGTCGTAAGCACTTTGGATGGGTTG [3d461] the value was 0.601.
In turn, TTCACTTGTCGTAAGCACTTTGGATGGGTTGA [2d36] returned a fraction ligated of 0.771.
The figure for TTCACTTGTCGTAAGCACTTTGGATGGTTGA [3d459] is 0.164; for TTCACTTGTCGTAAGCACTTTGGTGGGTTGA [3d457] it is 0.0197; for TTCACTTGTCGTAAGCATTTGGATGGGTTGA [3d454] it is 0.769.
For TTCACTTGTCGTAAGCCTTTGGATGGGTTGA [3d453] the value was 0.525.
For TTCACTTGTCGTAGAACTTTGGATGGGTTGA [3d432] the value was 0.761; for TTCACTTGTCGTAGACACTTGGATGGGTTGA [3d435], 0.489; for TTCACTTGTCGTAGACACTTTGATGGGTTGA [3d436], 0.258.
Sequence TTCACTTGTCGTAGACACTTTGGAGGGTTGA [3d438] registered a fraction ligated of 0.149.
Consider TTCACTTGTCGTAGACACTTTGGATGGGTTA [3d440], for which the fraction ligated is 0.341.
For TTCACTTGTCGTAGACACTTTGGATGGGTTG [3d441] the value was 0.801.
For TTCACTTGTCGTAGACACTTTGGATGGGTTGA [2d34] the value was 0.798; for TTCACTTGTCGTAGACACTTTGGATGGTTGA [3d439], 0.57; for TTCACTTGTCGTAGACACTTTGGTGGGTTGA [3d437], 0.0435.
For TTCACTTGTCGTAGACATTTGGATGGGTTGA [3d434] the value was 0.742.
Regarding TTCACTTGTCGTAGACCTTTGGATGGGTTGA [3d433], the fraction ligated came out at 0.751.
For TTCACTTGTCGTAGCACTTTGGATGGGTTGA [3d431] the value was 0.735.
On to TTCACTTGTCGTGACACTTTGGATGGGTTGA [3d429], for which the fraction ligated worked out at 0.255.
For TTCACTTGTCTAAACACTTTGGATGGGTTGA [3d404] the value was 0.719; for TTCACTTGTCTAAGAACTTTGGATGGGTTGA [3d406], 0.349; for TTCACTTGTCTAAGACACTTGGATGGGTTGA [3d409], 0.435.
TTCACTTGTCTAAGACACTTTGATGGGTTGA [3d410] came in with a fraction ligated of 0.312.
The figure for TTCACTTGTCTAAGACACTTTGGAGGGTTGA [3d412] is 0.154; for TTCACTTGTCTAAGACACTTTGGATGGGTTA [3d414] it is 0.344; for TTCACTTGTCTAAGACACTTTGGATGGGTTG [3d415] it is 0.752.
For TTCACTTGTCTAAGACACTTTGGATGGGTTGA [2d32] the value was 0.768; for TTCACTTGTCTAAGACACTTTGGATGGTTGA [3d413], 0.661; for TTCACTTGTCTAAGACACTTTGGTGGGTTGA [3d411], 0.035.
In turn, TTCACTTGTCTAAGACATTTGGATGGGTTGA [3d408] came in with a fraction ligated of 0.753.
For TTCACTTGTCTAAGACCTTTGGATGGGTTGA [3d407] the value was 0.578; for TTCACTTGTCTAAGCACTTTGGATGGGTTGA [3d405], 0.67; for TTCACTTGTCTAGACACTTTGGATGGGTTGA [3d403], 0.703.
The figure for TTCACTTGTGAAGACACTTTGGATGGGTTGA [3d388] is 0.767; for TTCACTTGTGTAAACACTTTGGATGGGTTGA [3d390] it is 0.793; for TTCACTTGTGTAAGAACTTTGGATGGGTTGA [3d392] it is 0.694.
The figure for TTCACTTGTGTAAGACACTTGGATGGGTTGA [3d395] is 0.161; for TTCACTTGTGTAAGACACTTTGATGGGTTGA [3d396] it is 0.122.
In turn, TTCACTTGTGTAAGACACTTTGGAGGGTTGA [3d398] displayed a fraction ligated of 0.105.
TTCACTTGTGTAAGACACTTTGGATGGGTTA [3d400] registered a fraction ligated of 0.132.
For TTCACTTGTGTAAGACACTTTGGATGGGTTG [3d401] the value was 0.726.
For TTCACTTGTGTAAGACACTTTGGATGGGTTGA [2d31] the value was 0.781.
The figure for TTCACTTGTGTAAGACACTTTGGATGGTTGA [3d399] is 0.284; for TTCACTTGTGTAAGACACTTTGGTGGGTTGA [3d397] it is 0.00981; for TTCACTTGTGTAAGACATTTGGATGGGTTGA [3d394] it is 0.778.
Take TTCACTTGTGTAAGACCTTTGGATGGGTTGA [3d393]: the fraction ligated came out at 0.548.
The figure for TTCACTTGTGTAAGCACTTTGGATGGGTTGA [3d391] is 0.775; for TTCACTTGTGTAGACACTTTGGATGGGTTGA [3d389] it is 0.762.
The figure for TTCACTTGTTAAGACACTTTGGATGGGTTGA [3d387] is 0.775; for TTCACTTTCGAAGACACTTTGGATGGGTTGA [3d357] it is 0.145.
TTCACTTTCGTAAACACTTTGGATGGGTTGA [3d359] had a fraction ligated of 0.0493.
The figure for TTCACTTTCGTAAGAACTTTGGATGGGTTGA [3d361] is 0.832; for TTCACTTTCGTAAGACACTTGGATGGGTTGA [3d364] it is 0.13; for TTCACTTTCGTAAGACACTTTGATGGGTTGA [3d365] it is 0.0352.
The figure for TTCACTTTCGTAAGACACTTTGGAGGGTTGA [3d367] is 0.0281; for TTCACTTTCGTAAGACACTTTGGATGGGTTA [3d369] it is 0.0133.
For TTCACTTTCGTAAGACACTTTGGATGGGTTG [3d370] the value was 0.184.
As for TTCACTTTCGTAAGACACTTTGGATGGGTTGA [2d29], the fraction ligated came to 0.501.
TTCACTTTCGTAAGACACTTTGGATGGTTGA [3d368] returned a fraction ligated of 0.0816.
The figure for TTCACTTTCGTAAGACACTTTGGTGGGTTGA [3d366] is 0.00787; for TTCACTTTCGTAAGACATTTGGATGGGTTGA [3d363] it is 0.775; for TTCACTTTCGTAAGACCTTTGGATGGGTTGA [3d362] it is 0.437.
TTCACTTTCGTAAGCACTTTGGATGGGTTGA [3d360] yielded a fraction ligated of 0.466.
For TTCACTTTCGTAGACACTTTGGATGGGTTGA [3d358] the value was 0.142.
Sequence TTCACTTTCTAAGACACTTTGGATGGGTTGA [3d356] came in with a fraction ligated of 0.36.
